Experimental data reported in article PMC9482650, “Quantitative fragmentomics allow affinity mapping of interactomes” (Nature Communications, 2022).

T1: APBA1_1, Q02410
T1 sequence (Q02410 651-752, limits assumed, looked up): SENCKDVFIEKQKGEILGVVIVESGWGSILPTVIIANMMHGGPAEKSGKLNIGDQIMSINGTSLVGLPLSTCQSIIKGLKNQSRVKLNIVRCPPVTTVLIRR

T2: APBA1_2, Q02410
T2 sequence (Q02410 742-832, limits assumed, looked up): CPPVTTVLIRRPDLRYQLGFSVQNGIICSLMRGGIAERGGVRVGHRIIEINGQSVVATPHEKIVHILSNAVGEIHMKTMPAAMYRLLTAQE

T3: APBA2_1, Q99767
T3 sequence (Q99767 563-664, limits assumed, looked up): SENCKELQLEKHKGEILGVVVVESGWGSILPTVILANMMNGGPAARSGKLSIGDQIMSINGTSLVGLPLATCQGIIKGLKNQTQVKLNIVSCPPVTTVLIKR

T4: APBA3_1, O96018
T4 sequence (O96018 389-490, limits assumed, looked up): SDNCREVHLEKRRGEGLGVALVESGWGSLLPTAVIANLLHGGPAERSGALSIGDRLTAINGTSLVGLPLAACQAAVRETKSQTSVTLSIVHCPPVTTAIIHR

T5: DFNB31_1, Q9P202
T5 sequence (Q9P202 135-233, limits assumed, looked up): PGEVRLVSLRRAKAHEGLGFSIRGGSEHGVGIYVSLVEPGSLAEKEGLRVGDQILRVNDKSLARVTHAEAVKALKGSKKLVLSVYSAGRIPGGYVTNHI

T6: FRMPD1, Q5SYB0
T6 sequence (Q5SYB0 52-145, limits assumed, looked up): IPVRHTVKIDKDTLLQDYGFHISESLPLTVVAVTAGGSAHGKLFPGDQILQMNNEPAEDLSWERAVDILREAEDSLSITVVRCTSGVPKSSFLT

T7: GRIP1_7, Q9Y3R0
T7 sequence (Q9Y3R0 999-1096, limits assumed, looked up): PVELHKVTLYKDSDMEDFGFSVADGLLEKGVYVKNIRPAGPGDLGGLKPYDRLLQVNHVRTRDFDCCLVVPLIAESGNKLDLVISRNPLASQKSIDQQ

T8: LRRC7, Q96NW7
T8 sequence (Q96NW7 1440-1537, limits assumed, looked up): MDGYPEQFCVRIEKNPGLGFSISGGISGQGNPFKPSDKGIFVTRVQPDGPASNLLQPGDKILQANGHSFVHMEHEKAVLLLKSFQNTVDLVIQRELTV

T9: NHERF3_1, Q5T2W1
T9 sequence (Q5T2W1 4-100, limits assumed, looked up): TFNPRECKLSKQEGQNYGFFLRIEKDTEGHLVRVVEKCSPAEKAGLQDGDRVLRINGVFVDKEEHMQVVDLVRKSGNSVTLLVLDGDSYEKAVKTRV

T10: NHERF3_3, Q5T2W1
T10 sequence (Q5T2W1 238-333, limits assumed, looked up): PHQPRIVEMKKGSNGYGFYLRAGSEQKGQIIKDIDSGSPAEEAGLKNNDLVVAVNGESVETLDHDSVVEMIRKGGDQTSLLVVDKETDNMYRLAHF

T11: NHERF3_4, Q5T2W1
T11 sequence (Q5T2W1 373-468, limits assumed, looked up): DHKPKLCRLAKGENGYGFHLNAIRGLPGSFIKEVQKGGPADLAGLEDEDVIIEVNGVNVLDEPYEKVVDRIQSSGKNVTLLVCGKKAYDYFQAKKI

T12: PTPN13_1, Q12923
T12 sequence (Q12923 1088-1188, limits assumed, looked up): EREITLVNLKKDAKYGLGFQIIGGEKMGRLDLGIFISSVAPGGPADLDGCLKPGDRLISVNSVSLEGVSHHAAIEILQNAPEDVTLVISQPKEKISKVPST


Columns and labels:
Experiment in all cases: holdup assay
Set-up in all cases: key: below the threshold = too weak to quantify, mostly under pKd 3.1 to 4
Details in all cases: plain residues with an end cap or a label only (N-terminal biotin on a linker: ado-ado)
APBA1_1, Q02410 = target: T1, APBA1_1, Q02410
APBA1_2, Q02410 = target: T2, APBA1_2, Q02410
APBA2_1, Q99767 = target: T3, APBA2_1, Q99767
APBA3_1, O96018 = target: T4, APBA3_1, O96018
DFNB31_1, Q9P202 = target: T5, DFNB31_1, Q9P202
DLG1_1, Q12959 = target: DLG1_1, Q12959
DLG1_2, Q12959 = target: DLG1_2, Q12959
DLG1_3, Q12959 = target: DLG1_3, Q12959
DLG2_3, Q15700 = target: DLG2_3, Q15700
FRMPD1, Q5SYB0 = target: T6, FRMPD1, Q5SYB0
FRMPD3, Q5JV73 = target: FRMPD3, Q5JV73
FRMPD3, Q5JV73, sequence (Q5JV73 12-100): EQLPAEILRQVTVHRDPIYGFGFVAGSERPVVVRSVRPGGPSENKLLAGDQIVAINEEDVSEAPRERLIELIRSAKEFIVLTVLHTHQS

FRMPD4, Q14CM0 = target: FRMPD4, Q14CM0
FRMPD4, Q14CM0, sequence (Q14CM0 67-160): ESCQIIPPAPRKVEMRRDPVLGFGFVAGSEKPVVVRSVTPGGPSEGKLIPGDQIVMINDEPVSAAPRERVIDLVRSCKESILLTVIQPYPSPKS

GRID2IP_1, A4D2P6 = target: GRID2IP_1, A4D2P6
GRID2IP_1, A4D2P6, sequence (A4D2P6 1-87): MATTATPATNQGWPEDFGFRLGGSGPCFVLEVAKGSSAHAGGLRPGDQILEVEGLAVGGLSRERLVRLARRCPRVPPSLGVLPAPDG

GRIP1_7, Q9Y3R0 = target: T7, GRIP1_7, Q9Y3R0
GRIP2_7, Q9C0E4 = target: GRIP2_7, Q9C0E4
GRIP2_7, Q9C0E4, sequence (Q9C0E4 934-1023): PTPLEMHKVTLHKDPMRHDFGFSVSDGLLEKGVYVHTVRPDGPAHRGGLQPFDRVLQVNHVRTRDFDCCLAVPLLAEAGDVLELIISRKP

HTRA2, O43464 = target: HTRA2, O43464
HTRA2, O43464, sequence (O43464 355-458): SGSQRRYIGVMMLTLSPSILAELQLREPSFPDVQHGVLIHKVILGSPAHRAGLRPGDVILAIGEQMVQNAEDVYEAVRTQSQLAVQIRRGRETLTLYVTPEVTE

IL16_4, Q14005 = target: IL16_4, Q14005
IL16_4, Q14005, sequence (Q14005 1229-1329): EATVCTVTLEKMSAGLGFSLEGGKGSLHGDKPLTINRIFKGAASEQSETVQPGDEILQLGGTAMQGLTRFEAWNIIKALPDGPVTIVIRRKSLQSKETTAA

Inadl_2, Q8NI35 = target: Inadl_2, Q8NI35
Inadl_2, Q8NI35, sequence (Q8NI35 238-335): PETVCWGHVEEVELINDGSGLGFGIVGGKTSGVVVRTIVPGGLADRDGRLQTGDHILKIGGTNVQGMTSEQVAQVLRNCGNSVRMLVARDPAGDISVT

Inadl_5, Q8NI35 = target: Inadl_5, Q8NI35
Inadl_5, Q8NI35, sequence (Q8NI35 673-780): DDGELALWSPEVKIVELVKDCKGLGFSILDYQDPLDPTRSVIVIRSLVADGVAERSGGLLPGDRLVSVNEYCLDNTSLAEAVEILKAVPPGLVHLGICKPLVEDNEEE

LRRC7, Q96NW7 = target: T8, LRRC7, Q96NW7
MAGI2_2, Q86UL8 = target: MAGI2_2, Q86UL8
MAGI2_2, Q86UL8, sequence (Q86UL8 410-522): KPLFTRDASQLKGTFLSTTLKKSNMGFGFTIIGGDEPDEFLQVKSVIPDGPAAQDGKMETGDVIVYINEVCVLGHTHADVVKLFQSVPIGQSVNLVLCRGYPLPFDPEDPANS

MAGI2_3, Q86UL8 = target: MAGI2_3, Q86UL8
MAGI2_3, Q86UL8, sequence (Q86UL8 600-682): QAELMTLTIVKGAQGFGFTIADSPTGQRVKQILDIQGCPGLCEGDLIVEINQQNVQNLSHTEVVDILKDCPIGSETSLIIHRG

NHERF3_1, Q5T2W1 = target: T9, NHERF3_1, Q5T2W1
NHERF3_3, Q5T2W1 = target: T10, NHERF3_3, Q5T2W1
NHERF3_4, Q5T2W1 = target: T11, NHERF3_4, Q5T2W1
PTPN13_1, Q12923 = target: T12, PTPN13_1, Q12923

| Binder | pKd (APBA1_1, Q02410) | pKd (APBA1_2, Q02410) | pKd (APBA2_1, Q99767) | pKd (APBA3_1, O96018) | pKd (DFNB31_1, Q9P202) | pKd (DLG1_1, Q12959) | pKd (DLG1_2, Q12959) | pKd (DLG1_3, Q12959) | pKd (DLG2_3, Q15700) | pKd (FRMPD1, Q5SYB0) | pKd (FRMPD3, Q5JV73) | pKd (FRMPD4, Q14CM0) | pKd (GRID2IP_1, A4D2P6) | pKd (GRIP1_7, Q9Y3R0) | pKd (GRIP2_7, Q9C0E4) | pKd (HTRA2, O43464) | pKd (IL16_4, Q14005) | pKd (Inadl_2, Q8NI35) | pKd (Inadl_5, Q8NI35) | pKd (LRRC7, Q96NW7) | further results |
| --- | --- | --- | --- | --- | --- | --- | --- | --- | --- | --- | --- | --- | --- | --- | --- | --- | --- | --- | --- | --- | --- |
| YYKRPVQEWV [MMP24, Q9Y5R2] | 3.48 | 5.02 | below the threshold | below the threshold | below the threshold | below the threshold | 3.99 | below the threshold | 3.7 | below the threshold | 3.55 | below the threshold | below the threshold | 3.71 | 4.32 | 4.4 | 3.57 | 3.94 | 4.47 | 4.03 | pKd (MAGI2_2, Q86UL8): below the threshold; pKd (MAGI2_3, Q86UL8): below the threshold; pKd (NHERF3_1, Q5T2W1): 4.24; pKd (NHERF3_3, Q5T2W1): below the threshold; pKd (NHERF3_4, Q5T2W1): below the threshold; pKd (PTPN13_1, Q12923): below the threshold |
| LPHGHSTTRV [NLGN4X, Q8N0W4] | below the threshold | 3.54 | below the threshold | below the threshold | 4.06 | 3.82 | 4.04 | 4.24 | 4.42 | below the threshold | below the threshold | below the threshold | below the threshold | below the threshold | below the threshold | below the threshold | 3.74 | below the threshold | below the threshold | below the threshold | pKd (MAGI2_2, Q86UL8): 4.95; pKd (MAGI2_3, Q86UL8): 4.1; pKd (NHERF3_1, Q5T2W1): 3.88; pKd (NHERF3_3, Q5T2W1): below the threshold; pKd (NHERF3_4, Q5T2W1): 3.85; pKd (PTPN13_1, Q12923): below the threshold |
| GNSVLKSTQF [SLC22A12, Q96S37] | below the threshold | below the threshold | below the threshold | below the threshold | 3.6 | below the threshold | below the threshold | below the threshold | 3.74 | below the threshold | below the threshold | below the threshold | below the threshold | below the threshold | below the threshold | below the threshold | 3.58 | below the threshold | below the threshold | below the threshold | pKd (MAGI2_2, Q86UL8): below the threshold; pKd (MAGI2_3, Q86UL8): 3.61; pKd (NHERF3_1, Q5T2W1): 6.17; pKd (NHERF3_3, Q5T2W1): below the threshold; pKd (NHERF3_4, Q5T2W1): 5.45; pKd (PTPN13_1, Q12923): below the threshold |
| VRNLPESEEL [MYOZ3, Q8TDC0] | below the threshold | below the threshold | below the threshold | below the threshold | below the threshold | below the threshold | below the threshold | below the threshold | below the threshold | below the threshold | below the threshold | 3.89 | below the threshold | below the threshold | below the threshold | below the threshold | below the threshold | below the threshold | below the threshold | below the threshold | pKd (MAGI2_2, Q86UL8): below the threshold; pKd (MAGI2_3, Q86UL8): below the threshold; pKd (NHERF3_1, Q5T2W1): 3.88; pKd (NHERF3_3, Q5T2W1): below the threshold; pKd (NHERF3_4, Q5T2W1): below the threshold; pKd (PTPN13_1, Q12923): below the threshold |
